# From patent publication US20240287172A1 (SCIRHOM, published 2024)
# Numbering of substitutions follows the chain as printed.
# T1: hiR2-FL-H620R-T7 (human, UniProt Q6PJF5 1-856)
# T1 sequence: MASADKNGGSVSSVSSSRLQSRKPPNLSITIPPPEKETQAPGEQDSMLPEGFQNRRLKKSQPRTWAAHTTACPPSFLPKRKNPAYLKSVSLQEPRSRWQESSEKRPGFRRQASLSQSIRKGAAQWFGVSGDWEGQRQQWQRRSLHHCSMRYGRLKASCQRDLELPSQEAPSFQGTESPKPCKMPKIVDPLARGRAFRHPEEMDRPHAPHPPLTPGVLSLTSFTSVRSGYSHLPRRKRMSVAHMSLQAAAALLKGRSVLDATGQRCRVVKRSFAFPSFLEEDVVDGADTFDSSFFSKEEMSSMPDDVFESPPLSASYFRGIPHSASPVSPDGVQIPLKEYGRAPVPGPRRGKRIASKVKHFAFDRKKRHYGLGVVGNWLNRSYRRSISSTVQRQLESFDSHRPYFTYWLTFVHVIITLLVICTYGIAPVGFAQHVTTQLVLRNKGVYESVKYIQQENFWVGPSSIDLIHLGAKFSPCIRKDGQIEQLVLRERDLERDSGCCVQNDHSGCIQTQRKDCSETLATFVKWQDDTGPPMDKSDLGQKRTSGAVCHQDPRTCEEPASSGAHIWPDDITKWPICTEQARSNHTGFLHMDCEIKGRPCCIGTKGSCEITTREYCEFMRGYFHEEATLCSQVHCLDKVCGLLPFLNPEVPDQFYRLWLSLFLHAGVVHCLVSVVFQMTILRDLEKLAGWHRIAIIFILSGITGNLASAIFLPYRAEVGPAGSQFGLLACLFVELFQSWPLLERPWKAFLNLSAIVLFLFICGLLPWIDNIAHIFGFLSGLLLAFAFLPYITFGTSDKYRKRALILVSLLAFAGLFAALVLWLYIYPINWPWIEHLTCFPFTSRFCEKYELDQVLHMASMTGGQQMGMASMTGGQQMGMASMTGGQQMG
# B1: antibody 43 (antibody, V domains shown)
# VH: QVALKESGPGILQPSQTLSLTCSFSGFSLSTFGMGVGWIRQSSGKGLEWLANIWWDDDKYYNPALKSRLTISKDASKNQAFLKIANVDTADTATYYCARIGNYGSNYWYFDVWGTGTTVTVSS
# VL: QIVLTQSPAIMSASPGERVTMTCSANSRISYMYWYQQKPGSSPRLLIYDTSNLASGVPVRFSGSGSGTSYSLTISRMEAEDAATYNCQQWSSYPLTFGAGTKLELK
# notes: mouse IgG, kappa light chain; also called clone #43; purified antibody 43
# B2: antibody 48 (antibody, V domains shown)
# VH: QVQLQQSGTELVRPGTSVKVSCKASGYAFTNYLIEWVKQRPGQGLEWIGVINPGSGFTKYNEKFKGKATLTADKSSSTVYMHLSSLTSEDSAVYFCARGLYRAMDYWGQGTSVTVSS
# VL: DIQMTQSPASQSASLGESVTITCLASQTIATWLAWYQQKPGKSPQLLIYGATTLADGVPSRFSGGGSGTKFSFKISSLQAEDFVSYYCQQLYSTPYTFGGGTKLEIK
# notes: mouse IgG, kappa light chain; also called clone #48; purified antibody 48
# B3: antibody 50 (antibody, V domains shown)
# VH: B2 VH with T9A, T16A, T30S, V79A, H82Q
# VL: B2 VL with A30G, G50A, T52A, T53S, S85N, L91I
# notes: mouse IgG, kappa light chain; also called clone #50; purified antibody 50
# Target: T1, hiR2-FL-H620R-T7
# Assay: FACS, MEF-DKO cells, 3 µg/ml
# Description: In brief, immortalized MEF-DKO hiR2-FL-G563D-T7, MEF-DKO hiR2-FL-A564P-T7, MEF-DKO hiR2-FL-1566E-T7, MEF-DKO hiR2-FL-D569E-T7, MEF-DKO hiR2-FL-E579K-T7, MEF-DKO hiR2-FL-Q580N-T7, MEF-DKO hiR2-FL-A581S-T7, MEF-DKO hiR2-FL-R582A-T7, MEF-DKO hiR2-FL-S583G-T7, MEF-DKO hiR2-FL-G587N-T7, MEF-DKO hiR2-FL-F588H-T7, MEF-DKO hiR2-FL-L589P-T7, MEF-DKO hiR2-FL-E594V-T7, MEF-DKO hiR2-FL-K596T-T7, MEF-DKO hiR2-FL-S607R-T7, MEF-DKO hiR2-FL-T612S-T7, MEF-DKO hiR2-FL-E617D-T7, MEF-DKO hiR2-FL-H620R-T7, MEF-DKO hiR2-FL-L636M-T7, MEF-DKO hiR2-FL-K638D-T7, MEF-DKO hiR2-FL-1771F-T7, MEF-DKO hiR2-FL-1825V-T7, MEF-DKO hiR2-FL-1828V-T7, MEF-DKO hiR2-FL-N829R-T7, MEF-DKO hiR2-FL-W830C-T7, MEF-DKO hiR2-FL-P831E-T7, MEF-DKO hiR2-FL-I833C-T7, MEF-DKO hiR2-FL-H835F-T7, MEF-DKO hiR2-FL-F8391-T7, MEF-DKO hiR2-FL-S843D-T7, MEF-DKO hiR2-FL-Q853A-T7, MEF-DKO hiR2-FL-V854Q-T7 and MEF-DKO hiR2-FL-R844K-T7 cells were harvested with 10 mM EDTA in PBS, washed and resuspended in FACS buffer (PBS, 3% FBS, 0.05% sodium azide), and seeded in Nunc U-bottom 96-well plates (Thermo Fisher Scientific, USA) at approximately 1×10⁵ cells per well. To pellet cells and remove supernatants, the plates were centrifuged at 1,500 rpm and 4° C. for 3 minutes. For primary staining, cells were resuspended in 100 μl per well of either FACS buffer alone (controls) or the purified antibodies 3, 5, 16, 22, 34, 42, 43, 44, 48, and 50 of the invention at 3 μg/ml in FACS buffer and incubated on ice for 1 hour. Afterwards, plates were centrifuged at 1,500 rpm and 4° C. for 3 minutes and washed twice with 200 μl per well of FACS buffer. For secondary staining, cells were spun down and resuspended in 100 μl per well of PE-conjugated goat anti-mouse IgG F(ab′)2 detection fragment (Dianova, Germany) diluted 1:100 in FACS buffer. Protected from light, the cell suspensions were incubated on ice for 1 hour. Plates were then centrifuged at 1,500 rpm and 4° C. for 3 minutes and washed three times with 200 μl per well of FACS buffer. Finally, cells were resuspended in 150 μl per well of FACS buffer and analyzed using a BD Accuri™ C6 Plus flow cytometer (Becton Dickinson, Germany).
binder,measurement,value
B1,loss of binding vs wild type,≥ 30%
B2,loss of binding vs wild type,≥ 30%
B3,loss of binding vs wild type,≥ 30%
